From US20250218531A1 (ABSCI, published 2025)
“And” between values parts separate entries of the source, which are not always exact repeats. Equal entries are not always repeated.

Molecular target: human epidermal growth factor receptor 2 (HER2) extracellular domain (human, UniProt P04626 23-629)
Assay: SPR

Binder	Kd	log(KD (M))
Trastuzumab HCDR3 variant AKFERGYYSFDFG (Fab, V domains shown) VH: EVQLVESGGGLVQPGGSLRLSCAASGFNIKDTYIHWVRQAPGKGLEWVARIYPTNGYTRYADSVKGRFTISADTSKNTAYLQMNSLRAEDTAVYYCAKFERGYYSFDFGWGQGTLVTVSS VL: not shown	38.3 nM	-7.42 log(M)
Trastuzumab HCDR3 variant ARNYYYGAYYFDY (Fab, V domains shown) VH: EVQLVESGGGLVQPGGSLRLSCAASGFNIKDTYIHWVRQAPGKGLEWVARIYPTNGYTRYADSVKGRFTISADTSKNTAYLQMNSLRAEDTAVYYCARNYYYGAYYFDYWGQGTLVTVSS VL: not shown	45.5 nM	-7.34 log(M)
Trastuzumab HCDR3 variant AQYGRGGYWYFDY (Fab, V domains shown) VH: EVQLVESGGGLVQPGGSLRLSCAASGFNIKDTYIHWVRQAPGKGLEWVARIYPTNGYTRYADSVKGRFTISADTSKNTAYLQMNSLRAEDTAVYYCAQYGRGGYWYFDYWGQGTLVTVSS VL: not shown	188 nM	-6.72 log(M)
Trastuzumab HCDR3 variant ARGYYQDSQSWGY (Fab, V domains shown) VH: EVQLVESGGGLVQPGGSLRLSCAASGFNIKDTYIHWVRQAPGKGLEWVARIYPTNGYTRYADSVKGRFTISADTSKNTAYLQMNSLRAEDTAVYYCARGYYQDSQSWGYWGQGTLVTVSS VL: not shown	166 nM	-6.78 log(M)
Trastuzumab HCDR3 variant APWWSGWYYFFDT (Fab, V domains shown) VH: EVQLVESGGGLVQPGGSLRLSCAASGFNIKDTYIHWVRQAPGKGLEWVARIYPTNGYTRYADSVKGRFTISADTSKNTAYLQMNSLRAEDTAVYYCAPWWSGWYYFFDTWGQGTLVTVSS VL: not shown	33 nM	-7.48 log(M)
Trastuzumab HCDR3 variant ARHYDYGRYYMDV (Fab, V domains shown) VH: EVQLVESGGGLVQPGGSLRLSCAASGFNIKDTYIHWVRQAPGKGLEWVARIYPTNGYTRYADSVKGRFTISADTSKNTAYLQMNSLRAEDTAVYYCARHYDYGRYYMDVWGQGTLVTVSS VL: not shown	30.9 nM	-7.51 log(M)
Trastuzumab HCDR3 variant ARSYAFLYGRMDY (Fab, V domains shown) VH: EVQLVESGGGLVQPGGSLRLSCAASGFNIKDTYIHWVRQAPGKGLEWVARIYPTNGYTRYADSVKGRFTISADTSKNTAYLQMNSLRAEDTAVYYCARSYAFLYGRMDYWGQGTLVTVSS VL: not shown	189 nM and 188 nM	-6.72 log(M)
Trastuzumab HCDR3 variant ARFSGYGAYDYAY (Fab, V domains shown) VH: EVQLVESGGGLVQPGGSLRLSCAASGFNIKDTYIHWVRQAPGKGLEWVARIYPTNGYTRYADSVKGRFTISADTSKNTAYLQMNSLRAEDTAVYYCARFSGYGAYDYAYWGQGTLVTVSS VL: not shown	125 nM	-6.9 log(M)
Trastuzumab HCDR3 variant ARSYFRFTGDFFY (Fab, V domains shown) VH: EVQLVESGGGLVQPGGSLRLSCAASGFNIKDTYIHWVRQAPGKGLEWVARIYPTNGYTRYADSVKGRFTISADTSKNTAYLQMNSLRAEDTAVYYCARSYFRFTGDFFYWGQGTLVTVSS VL: not shown	135 nM	-6.87 log(M)
Trastuzumab HCDR3 variant ARSYAYLYGSWDY (Fab, V domains shown) VH: EVQLVESGGGLVQPGGSLRLSCAASGFNIKDTYIHWVRQAPGKGLEWVARIYPTNGYTRYADSVKGRFTISADTSKNTAYLQMNSLRAEDTAVYYCARSYAYLYGSWDYWGQGTLVTVSS VL: not shown	102 nM	-6.99 log(M)
Trastuzumab HCDR3 variant ARDGGMYRYGLYG (Fab, V domains shown) VH: EVQLVESGGGLVQPGGSLRLSCAASGFNIKDTYIHWVRQAPGKGLEWVARIYPTNGYTRYADSVKGRFTISADTSKNTAYLQMNSLRAEDTAVYYCARDGGMYRYGLYGWGQGTLVTVSS VL: not shown	231 nM	-6.64 log(M)
Trastuzumab HCDR3 variant ARFGGAGGYYFDY (Fab, V domains shown) VH: EVQLVESGGGLVQPGGSLRLSCAASGFNIKDTYIHWVRQAPGKGLEWVARIYPTNGYTRYADSVKGRFTISADTSKNTAYLQMNSLRAEDTAVYYCARFGGAGGYYFDYWGQGTLVTVSS VL: not shown	35 nM	-7.46 log(M)
Trastuzumab HCDR3 variant ARGHYSLGYSFDF (Fab, V domains shown) VH: EVQLVESGGGLVQPGGSLRLSCAASGFNIKDTYIHWVRQAPGKGLEWVARIYPTNGYTRYADSVKGRFTISADTSKNTAYLQMNSLRAEDTAVYYCARGHYSLGYSFDFWGQGTLVTVSS VL: not shown	256 nM	-6.59 log(M)
Trastuzumab HCDR3 variant ANVGSSLGIAALD (Fab, V domains shown) VH: EVQLVESGGGLVQPGGSLRLSCAASGFNIKDTYIHWVRQAPGKGLEWVARIYPTNGYTRYADSVKGRFTISADTSKNTAYLQMNSLRAEDTAVYYCANVGSSLGIAALDWGQGTLVTVSS VL: not shown	36.7 nM	-7.44 log(M)
Trastuzumab HCDR3 variant ARDSPYYGSLYLY (Fab, V domains shown) VH: EVQLVESGGGLVQPGGSLRLSCAASGFNIKDTYIHWVRQAPGKGLEWVARIYPTNGYTRYADSVKGRFTISADTSKNTAYLQMNSLRAEDTAVYYCARDSPYYGSLYLYWGQGTLVTVSS VL: not shown	205 nM	-6.69 log(M)
Trastuzumab HCDR3 variant ARDVYVGSPVFDY (Fab, V domains shown) VH: EVQLVESGGGLVQPGGSLRLSCAASGFNIKDTYIHWVRQAPGKGLEWVARIYPTNGYTRYADSVKGRFTISADTSKNTAYLQMNSLRAEDTAVYYCARDVYVGSPVFDYWGQGTLVTVSS VL: not shown	278 nM	-6.56 log(M)

Binder	Kd	log(KD (M))
Trastuzumab HCDR3 variant ARPSYDVGGDMLF (Fab, V domains shown) VH: EVQLVESGGGLVQPGGSLRLSCAASGFNIKDTYIHWVRQAPGKGLEWVARIYPTNGYTRYADSVKGRFTISADTSKNTAYLQMNSLRAEDTAVYYCARPSYDVGGDMLFWGQGTLVTVSS VL: not shown	83.3 nM and 83.2 nM	-7.08 log(M)
Trastuzumab HCDR3 variant ARWARGAGYYWDY (Fab, V domains shown) VH: EVQLVESGGGLVQPGGSLRLSCAASGFNIKDTYIHWVRQAPGKGLEWVARIYPTNGYTRYADSVKGRFTISADTSKNTAYLQMNSLRAEDTAVYYCARWARGAGYYWDYWGQGTLVTVSS VL: not shown	89.6 nM	-7.05 log(M)
Trastuzumab HCDR3 variant ARFGPAYFYGFYY (Fab, V domains shown) VH: EVQLVESGGGLVQPGGSLRLSCAASGFNIKDTYIHWVRQAPGKGLEWVARIYPTNGYTRYADSVKGRFTISADTSKNTAYLQMNSLRAEDTAVYYCARFGPAYFYGFYYWGQGTLVTVSS VL: not shown	50.9 nM	-7.29 log(M)
Trastuzumab HCDR3 variant AKYTRGFSYGFGY (Fab, V domains shown) VH: EVQLVESGGGLVQPGGSLRLSCAASGFNIKDTYIHWVRQAPGKGLEWVARIYPTNGYTRYADSVKGRFTISADTSKNTAYLQMNSLRAEDTAVYYCAKYTRGFSYGFGYWGQGTLVTVSS VL: not shown	37.8 nM	-7.42 log(M)
Trastuzumab HCDR3 variant ARDGYPQYGGYGY (Fab, V domains shown) VH: EVQLVESGGGLVQPGGSLRLSCAASGFNIKDTYIHWVRQAPGKGLEWVARIYPTNGYTRYADSVKGRFTISADTSKNTAYLQMNSLRAEDTAVYYCARDGYPQYGGYGYWGQGTLVTVSS VL: not shown	127 nM	-6.9 log(M)
Trastuzumab HCDR3 variant ARDGYPFYSGMDY (Fab, V domains shown) VH: EVQLVESGGGLVQPGGSLRLSCAASGFNIKDTYIHWVRQAPGKGLEWVARIYPTNGYTRYADSVKGRFTISADTSKNTAYLQMNSLRAEDTAVYYCARDGYPFYSGMDYWGQGTLVTVSS VL: not shown	154 nM	-6.81 log(M)
Trastuzumab HCDR3 variant ARTTSSIPSSFDY (Fab, V domains shown) VH: EVQLVESGGGLVQPGGSLRLSCAASGFNIKDTYIHWVRQAPGKGLEWVARIYPTNGYTRYADSVKGRFTISADTSKNTAYLQMNSLRAEDTAVYYCARTTSSIPSSFDYWGQGTLVTVSS VL: not shown	149 nM	-6.83 log(M)
Trastuzumab HCDR3 variant ARTVVGWYGRFDY (Fab, V domains shown) VH: EVQLVESGGGLVQPGGSLRLSCAASGFNIKDTYIHWVRQAPGKGLEWVARIYPTNGYTRYADSVKGRFTISADTSKNTAYLQMNSLRAEDTAVYYCARTVVGWYGRFDYWGQGTLVTVSS VL: not shown	63.6 nM	-7.2 log(M)
Trastuzumab HCDR3 variant ARGGYGYYTWFDY (Fab, V domains shown) VH: EVQLVESGGGLVQPGGSLRLSCAASGFNIKDTYIHWVRQAPGKGLEWVARIYPTNGYTRYADSVKGRFTISADTSKNTAYLQMNSLRAEDTAVYYCARGGYGYYTWFDYWGQGTLVTVSS VL: not shown	42.1 nM	-7.38 log(M)
Trastuzumab HCDR3 variant ARAGGTSISLGHG (Fab, V domains shown) VH: EVQLVESGGGLVQPGGSLRLSCAASGFNIKDTYIHWVRQAPGKGLEWVARIYPTNGYTRYADSVKGRFTISADTSKNTAYLQMNSLRAEDTAVYYCARAGGTSISLGHGWGQGTLVTVSS VL: not shown	67 nM	-7.17 log(M)
Trastuzumab HCDR3 variant ARSGYPGYGSFAY (Fab, V domains shown) VH: EVQLVESGGGLVQPGGSLRLSCAASGFNIKDTYIHWVRQAPGKGLEWVARIYPTNGYTRYADSVKGRFTISADTSKNTAYLQMNSLRAEDTAVYYCARSGYPGYGSFAYWGQGTLVTVSS VL: not shown	60.7 nM	-7.22 log(M)
Trastuzumab HCDR3 variant AKFHWGEDWLSDN (Fab, V domains shown) VH: EVQLVESGGGLVQPGGSLRLSCAASGFNIKDTYIHWVRQAPGKGLEWVARIYPTNGYTRYADSVKGRFTISADTSKNTAYLQMNSLRAEDTAVYYCAKFHWGEDWLSDNWGQGTLVTVSS VL: not shown	59.1 nM	-7.23 log(M)
Trastuzumab HCDR3 variant APWGTYRYGYFDH (Fab, V domains shown) VH: EVQLVESGGGLVQPGGSLRLSCAASGFNIKDTYIHWVRQAPGKGLEWVARIYPTNGYTRYADSVKGRFTISADTSKNTAYLQMNSLRAEDTAVYYCAPWGTYRYGYFDHWGQGTLVTVSS VL: not shown	67.6 nM	-7.17 log(M)
Trastuzumab HCDR3 variant ARNSGTGIWAFAY (Fab, V domains shown) VH: EVQLVESGGGLVQPGGSLRLSCAASGFNIKDTYIHWVRQAPGKGLEWVARIYPTNGYTRYADSVKGRFTISADTSKNTAYLQMNSLRAEDTAVYYCARNSGTGIWAFAYWGQGTLVTVSS VL: not shown	65 nM	-7.19 log(M)
Trastuzumab HCDR3 variant AQNWDRGSYFYTY (Fab, V domains shown) VH: EVQLVESGGGLVQPGGSLRLSCAASGFNIKDTYIHWVRQAPGKGLEWVARIYPTNGYTRYADSVKGRFTISADTSKNTAYLQMNSLRAEDTAVYYCAQNWDRGSYFYTYWGQGTLVTVSS VL: not shown	43.1 nM and 43 nM	-7.37 log(M)
